Test results taken from the supplement of paper PMC7877785.
± gives the uncertainty stated by the source.

Assay: self-splicing fitness, log relative to wild type (ln ratio); higher = more splicing; Tetrahymena group I intron in knt gene, E. coli kanamycin selection, DiMSum; sequences stand for … in CUCUCU…GGAGGGAAAAGUUAUCAGGCAUGCACCUGGUAGCUAGUCUUUAAACCAAUAGAUUGCAUCGGUUUAAAAGGCAAGACCGUCAAAUUGCGGGAAAGGGGUCAACAGCCGUUCAGUACCAAGUCUCAGGGGAAACUUUGAGAUGGCCUUGCAAAGGGUAUGGUAAUAAGCUGACGGACAUGGUCCUAACCACGCAGCCAAGUCCUAAGUCAACAGAUCUUCUGUUGAUAUGGAUGCAGUUCACAGACUAAAUGUCGGUCGGGGAAGAUGUAUUCUUCUCAUAAGAUAUAGUCGGACCUCUCCUUAAUGGGAGCUAGCGGAUGAAGUGAUGCAACACUGGAGCCGCUGGGAACUAAUUUGUAUGCGAAAGUAUAUUGAUUAGUUUUGGAGUACUCGUGGUCG
Outline: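 The eight P1ex-region nucleotides of an intron in the knt kanamycin-resistance gene on pET-22b(+) were all randomised and the library put into E. coli BL21(DE3). Six replicate transformations were grown overnight at 37°C or 30°C on LB agar with or without 25 μg/mL kanamycin, together with 100 μg/mL carbenicillin, 50 μM IPTG and 0.2% rhamnose. Colonies were pooled and amplicon-sequenced on an Illumina HiSeq 2500. Fitness from DiMSum is the error-weighted combination of wild-type-normalised replicate fold changes, kanamycin over none.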

Row | Sequence | self-splicing fitness (ln) (30 °C) | self-splicing fitness (ln) (37 °C)
1 | CUCAAGCAAUAUUACGUACU | -3.51 ± 0.22 | -1.29 ± 0.17
2 | AUCUAGCAAUAUUACGCUAG | -3.91 ± 0.27 | -3.5 ± 0.31
3 | CGAAAGCAAUAUUACGCGCU | -2.08 ± 0.13 | -1.6 ± 0.12
4 | CUUUAGCAAUAUUACGAUCU | -3.2 ± 0.36 | -2.48 ± 0.45
5 | CAGGAGCAAUAUUACGCUGC | -4.3 ± 0.36 | -2.82 ± 0.36
6 | UUUUAGCAAUAUUACGCUUG | -0.327 ± 0.2 | -0.13 ± 0.19
7 | UAAAAGCAAUAUUACGCAUG | -0.716 ± 0.068 | -0.257 ± 0.1
8 | AUGUAGCAAUAUUACGAACU | -0.642 ± 0.12 | 0.131 ± 0.15
9 | CAGUAGCAAUAUUACGUUGU | -4.7 ± 0.28 | -3.14 ± 0.24
10 | UGUAAGCAAUAUUACGAUAU | -3.01 ± 0.3 | -0.86 ± 0.24
11 | ACGUAGCAAUAUUACGGUUA | -0.772 ± 0.091 | -0.0368 ± 0.092
12 | AGUUAGCAAUAUUACGACGA | -0.101 ± 0.18 | -0.368 ± 0.14
13 | CCGUAGCAAUAUUACGAUAU | -2 ± 0.19 | -3.31 ± 0.43
14 | GAAAAGCAAUAUUACGAAGA | -2.88 ± 0.18 | -1.34 ± 0.13
15 | UUUCAGCAAUAUUACGCAUG | -0.765 ± 0.093 | -0.0959 ± 0.11
16 | GACAAGCAAUAUUACGAUUA | -0.415 ± 0.096 | -0.117 ± 0.1
17 | UGUAAGCAAUAUUACGUAGG | -1.71 ± 0.15 | -0.712 ± 0.2
18 | UCUGAGCAAUAUUACGCGUA | -2.5 ± 0.19 | 0.763 ± 0.13
19 | GACAAGCAAUAUUACGCCAU | -3.44 ± 0.4 | -2.96 ± 0.26

Row | Sequence | self-splicing fitness (ln) (30 °C) | self-splicing fitness (ln) (37 °C)
20 | UUGGAGCAAUAUUACGCACG | -1.33 ± 0.17 | -1.92 ± 0.29
21 | GGACAGCAAUAUUACGCACG | -0.391 ± 0.084 | 0.295 ± 0.1
22 | UCCGAGCAAUAUUACGUUUC | -3.39 ± 0.22 | -2.11 ± 0.34
23 | GUACAGCAAUAUUACGCGGU | -3.17 ± 0.15 | -2.31 ± 0.15
24 | CCACAGCAAUAUUACGUAUA | -4.05 ± 0.24 | -2.84 ± 0.23
25 | AUGGAGCAAUAUUACGACGG | – | 1.8 ± 0.38
26 | GGGUAGCAAUAUUACGGACU | -0.272 ± 0.19 | 0.331 ± 0.24
27 | GUAAAGCAAUAUUACGAAAG | -2.91 ± 0.19 | -1.33 ± 0.19
28 | CUCAAGCAAUAUUACGGCGG | -2.38 ± 0.092 | -1.65 ± 0.11
29 | UAUAAGCAAUAUUACGCCCG | 0.0737 ± 0.21 | 0.591 ± 0.3
30 | UUAGAGCAAUAUUACGUGUU | -4.76 ± 0.32 | -2.53 ± 0.28
31 | AUUCAGCAAUAUUACGGAGU | -4.52 ± 0.34 | -2.3 ± 0.23
32 | GAUGAGCAAUAUUACGGUCU | -3.87 ± 0.37 | -3.34 ± 0.26
33 | GGUUAGCAAUAUUACGCAAA | -1.62 ± 0.39 | -2.21 ± 0.31
34 | UGUUAGCAAUAUUACGCGGC | – | -3.46 ± 0.29
35 | UGCAAGCAAUAUUACGGCGC | -3.27 ± 0.18 | -2.84 ± 0.31
36 | UAGCAGCAAUAUUACGCUGC | -2.86 ± 0.35 | -2.2 ± 0.32
37 | UCCUAGCAAUAUUACGCACG | -3.34 ± 0.37 | -1.87 ± 0.47
38 | UUGGAGCAAUAUUACGAGGC | -3.52 ± 0.4 | –
